Reference: the supplement of paper PMC10567573

B1: ZNF649 (parent)
chain: MTKAQESLTLEDVAVDFTWEEWQF

Variants of: B1
Assay: protein stability index of a GFP-peptide fusion (GPS, HEK-293T) (PSI 1-6); higher = more stable
Settings: c terminus: a fixed tail appended
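Further: lentivirally expressed fusions sorted by FACS into six bins by GFP to DsRed ratio, PSI derived from sequencing read proportions per bin multiplied by bin number.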

Variant	protein stability index
MVKAQESLTLEDVAVDFTWEEWQF	2.64
MWKAQESLTLEDVAVDFTWEEWQF	2.36
MYKAQESLTLEDVAVDFTWEEWQF	2.33
MTKAAESLTLEDVAVDFTWEEWQF	3.02
MTKAWESLTLEDVAVDFTWEEWQF	1.49
MTKALESLTLEDVAVDFTWEEWQF	2.97
MTKASESLTLEDVAVDFTWEEWQF	3.96
MTKAPESLTLEDVAVDFTWEEWQF	3.04
MTKATESLTLEDVAVDFTWEEWQF	3.04
MTKAVESLTLEDVAVDFTWEEWQF	3.37
MTKAGESLTLEDVAVDFTWEEWQF	2.84
MTKAIESLTLEDVAVDFTWEEWQF	3.02
MTKAMESLTLEDVAVDFTWEEWQF	2.92
MTKARESLTLEDVAVDFTWEEWQF	2.46
MTKADESLTLEDVAVDFTWEEWQF	3.4
MTKAYESLTLEDVAVDFTWEEWQF	2.32
MTKANESLTLEDVAVDFTWEEWQF	3.33
MTKAEESLTLEDVAVDFTWEEWQF	3.35
MTKACESLTLEDVAVDFTWEEWQF	2.78
MTKAHESLTLEDVAVDFTWEEWQF	3.2
MTKAFESLTLEDVAVDFTWEEWQF	3.12
MTKAKESLTLEDVAVDFTWEEWQF	2.83
MTKAQHSLTLEDVAVDFTWEEWQF	2.2
MTKAQKSLTLEDVAVDFTWEEWQF	3.02

Variant	protein stability index
MTKAQVSLTLEDVAVDFTWEEWQF	1.75
MTKAQNSLTLEDVAVDFTWEEWQF	2.88
MTKAQQSLTLEDVAVDFTWEEWQF	2.94
MTKAQTSLTLEDVAVDFTWEEWQF	2.71
MTKAQSSLTLEDVAVDFTWEEWQF	2.33
MTKAQWSLTLEDVAVDFTWEEWQF	1.95
MTKAQFSLTLEDVAVDFTWEEWQF	1.89
MTKAQLSLTLEDVAVDFTWEEWQF	2.43
MTKAQDSLTLEDVAVDFTWEEWQF	3.14
MTKAQMSLTLEDVAVDFTWEEWQF	1.92
MTKAQRSLTLEDVAVDFTWEEWQF	2.88
MTKAQGSLTLEDVAVDFTWEEWQF	2.74
MTKAQYSLTLEDVAVDFTWEEWQF	1.53
MTKAQASLTLEDVAVDFTWEEWQF	1.87
MTKAQCSLTLEDVAVDFTWEEWQF	2.52
MTKAQPSLTLEDVAVDFTWEEWQF	2.78
MTKAQISLTLEDVAVDFTWEEWQF	4.31
MTKAQELLTLEDVAVDFTWEEWQF	2.43
MTKAQETLTLEDVAVDFTWEEWQF	3.67
MTKAQEGLTLEDVAVDFTWEEWQF	3.8
MTKAQEFLTLEDVAVDFTWEEWQF	3.2
MTKAQENLTLEDVAVDFTWEEWQF	3.39
MTKAQEELTLEDVAVDFTWEEWQF	3.93
MTKAQECLTLEDVAVDFTWEEWQF	2.9

Variant	protein stability index
MTKAQEKLTLEDVAVDFTWEEWQF	3.01
MTKAQEILTLEDVAVDFTWEEWQF	3.1
MTKAQEMLTLEDVAVDFTWEEWQF	2.69
MTKAQEALTLEDVAVDFTWEEWQF	2.82
MTKAQERLTLEDVAVDFTWEEWQF	3.55
MTKAQEQLTLEDVAVDFTWEEWQF	3.68
MTKAQEDLTLEDVAVDFTWEEWQF	3.75
MTKAQEHLTLEDVAVDFTWEEWQF	2.6
MTKAQEPLTLEDVAVDFTWEEWQF	3.14
MTRAQESLTLEDVAVDFTWEEWQF	3.12
MTCAQESLTLEDVAVDFTWEEWQF	2.23
MTVAQESLTLEDVAVDFTWEEWQF	3.23
MTNAQESLTLEDVAVDFTWEEWQF	3.65
MTYAQESLTLEDVAVDFTWEEWQF	2.64
MTMAQESLTLEDVAVDFTWEEWQF	2.64
MTTAQESLTLEDVAVDFTWEEWQF	3.33
MTPAQESLTLEDVAVDFTWEEWQF	3.33
MTLAQESLTLEDVAVDFTWEEWQF	2.84
MTWAQESLTLEDVAVDFTWEEWQF	2.53
MTSAQESLTLEDVAVDFTWEEWQF	3.85
MTQAQESLTLEDVAVDFTWEEWQF	2.98
MTGAQESLTLEDVAVDFTWEEWQF	3.36
MTIAQESLTLEDVAVDFTWEEWQF	2.74
MTFAQESLTLEDVAVDFTWEEWQF	2.17

Variant	protein stability index
MTEAQESLTLEDVAVDFTWEEWQF	4.29
MTHAQESLTLEDVAVDFTWEEWQF	3.7
MTDAQESLTLEDVAVDFTWEEWQF	3.63
MTKMQESLTLEDVAVDFTWEEWQF	2.5
MTKTQESLTLEDVAVDFTWEEWQF	3.11
MTKHQESLTLEDVAVDFTWEEWQF	3.48
MTKCQESLTLEDVAVDFTWEEWQF	2.4
MTKEQESLTLEDVAVDFTWEEWQF	3.66
MTKWQESLTLEDVAVDFTWEEWQF	2.15
MTKDQESLTLEDVAVDFTWEEWQF	3.48
MTKRQESLTLEDVAVDFTWEEWQF	2.97
MTKQQESLTLEDVAVDFTWEEWQF	3.18
MTKYQESLTLEDVAVDFTWEEWQF	2.56
MTKIQESLTLEDVAVDFTWEEWQF	2.89
MTKVQESLTLEDVAVDFTWEEWQF	2.52
MTKNQESLTLEDVAVDFTWEEWQF	3.04
MTKLQESLTLEDVAVDFTWEEWQF	3.71
MTKKQESLTLEDVAVDFTWEEWQF	3.15
MTKFQESLTLEDVAVDFTWEEWQF	2.51
MTKGQESLTLEDVAVDFTWEEWQF	2.94
MTKSQESLTLEDVAVDFTWEEWQF	3.45
MTKPQESLTLEDVAVDFTWEEWQF	3.75
